Results from US20030068675, “Position dependent recognition of GNN nucleotide triplets by zinc fingers” (published 2003).
Residue numbers refer to the chain shown, from its start.

Columns and labels:
Assay in all cases: EMSA
Conditions in all cases: tags: MBP fusion
ZFP SBS#577 = ZFP SBS#577 (synthetic, UniProt P08047)
Method in brief: (§1)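 Purified ZFP was titrated against labeled double-stranded target (1 nM or lower, at least 10-fold below expected Kd) carrying the natural binding site with flanks. Binding buffer was 10 mM Tris pH 7.5, 100 mM KCl, 1 mM MgCl2, 0.1 mM ZnCl2, 5 mM DTT, 10% glycerol, 0.02% BSA, with equilibration for at least 45 min. Bound and free target were separated on a 10% polyacrylamide gel.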

ZFP SBS#518 = ZFP SBS#518 (synthetic, UniProt P08047)
Method in brief: as §1

ZFP SBS#517 = ZFP SBS#517 (synthetic, UniProt P08047)
Method in brief: as §1

ZFP SBS#540 = target: T1, ZFP SBS#540 (synthetic)
T1 chain: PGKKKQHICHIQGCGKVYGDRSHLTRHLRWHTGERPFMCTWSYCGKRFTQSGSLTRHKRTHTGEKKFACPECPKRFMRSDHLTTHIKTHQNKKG
Method in brief: as §1

ZFP SBS#516 = ZFP SBS#516 (synthetic, UniProt P08047)
Method in brief: as §1

ZFP SBS#595 = target: T2, ZFP SBS#595 (synthetic)
T2 chain: T1 chain with D20Q, S22G, H23S, T25A, Q50R, S51G, G52D, S53A
Method in brief: as §1

ZFP SBS#581 = target: T3, ZFP SBS#581 (synthetic)
T3 chain: T1 chain with D20Q, R21S, Q50R, G52D, T55L, R78D, S79K, D80G, H81N, T83Q
Method in brief: as §1

ZFP SBS#570 = target: T4, ZFP SBS#570 (synthetic)
T4 chain: T1 chain with R21S, S22G, S51R, G52S, S53N, T55V, T84R
Method in brief: as §1

ZFP SBS#579 = target: T5, ZFP SBS#579 (synthetic)
T5 chain: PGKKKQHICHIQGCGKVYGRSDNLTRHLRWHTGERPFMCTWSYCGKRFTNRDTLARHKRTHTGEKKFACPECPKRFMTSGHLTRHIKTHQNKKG
Method in brief: as §1

ZFP SBS#587 = ZFP SBS#587 (synthetic)
Method in brief: as §1

ZFP SBS#531 = target: T6, ZFP SBS#531 (synthetic, UniProt P08047)
T6 chain: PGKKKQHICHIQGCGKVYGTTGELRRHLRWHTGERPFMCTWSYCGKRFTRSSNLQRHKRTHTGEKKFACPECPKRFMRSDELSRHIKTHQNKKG
Method in brief: as §1

ZFP SBS#532 = ZFP SBS#532 (synthetic, UniProt P08047)
Method in brief: as §1

ZFP SBS#534 = ZFP SBS#534 (synthetic)
Method in brief: as §1

ZFP SBS#533 = ZFP SBS#533 (synthetic)
Method in brief: as §1

ZFP SBS#588 = ZFP SBS#588 (synthetic, UniProt P08047)
Method in brief: as §1

ZFP SBS#519 = ZFP SBS#519 (synthetic, UniProt P08047)
Method in brief: as §1

ZFP SBS#520 = ZFP SBS#520 (synthetic)
Method in brief: as §1

ZFP SBS#576 = ZFP SBS#576 (synthetic)
Method in brief: as §1

ZFP SBS#277 = target: T7, ZFP SBS#277 (synthetic)
T7 chain: T5 chain with N23E, N50D, D52S, T53S, A55T, T78R, G80D, H81E, L82R, T83K
Method in brief: as §1

ZFP SBS#278 = target: T8, ZFP SBS#278 (synthetic)
T8 chain: T5 chain with R20Q, D22W, N23E, N50E, D52G, T78R, G80D, H81E, L82R, T83K
Method in brief: as §1

ZFP SBS#279 = target: T9, ZFP SBS#279 (synthetic)
T9 chain: T6 chain with T20Q, T21S, G22W, R25T, R50D, S51R, N53S, Q55T, L82R, S83K
Method in brief: as §1

ZFP SBS#252 = target: T10, ZFP SBS#252 (synthetic)
T10 chain: T5 chain with N23E, N50D, D52S, T53S, A55T, T78R, G80D, H81E, T83R
Method in brief: as §1

ZFP SBS#281 = target: T11, ZFP SBS#281 (synthetic)
T11 chain: T6 chain with T20Q, T21S, E23S, R25T, R50D, S51R, N53S, Q55T, L82R, S83K
Method in brief: as §1

ZFP SBS#280 = target: T12, ZFP SBS#280 (synthetic)
T12 chain: T5 chain with R20Q, D22G, N23S, N50E, D52G, T78R, G80D, H81E, L82R, T83K
Method in brief: as §1

ZFP SBS#276 = target: T13, ZFP SBS#276 (synthetic)
T13 chain: T5 chain with N23E, N50E, D52G, T78R, G80D, H81E, L82R, T83K
Method in brief: as §1

ZFP SBS#575 = target: T14, ZFP SBS#575 (synthetic)
T14 chain: T1 chain with R21F, Q50R, G52D, S53H, R78D, S79K, D80G, H81N, T83Q
Method in brief: as §1

ZFP SBS#583 = ZFP SBS#583 (synthetic)
Method in brief: as §1

ZFP SBS#522 = ZFP SBS#522 (synthetic, UniProt P08047)
Method in brief: as §1

ZFP SBS#606 = target: T15, ZFP SBS#606 (synthetic, UniProt P08047)
T15 chain: T6 chain with G22S, E23N, S52D, E81H
Method in brief: as §1

ZFP SBS#528 = target: T16, ZFP SBS#528 (synthetic, UniProt P08047)
T16 chain: T6 chain with G22S, E23N, E81H
Method in brief: as §1

ZFP SBS#527 = target: T17, ZFP SBS#527 (synthetic, UniProt P08047)
T17 chain: T6 chain with G22S, E23N, E81H
Method in brief: as §1

ZFP SBS#574 = target: T18, ZFP SBS#574 (synthetic)
T18 chain: T5 chain with N23H, N50R, R51S, T53H, A55T, T78D, S79K, H81N, T83Q, R84T
Method in brief: as §1

ZFP SBS#515 = ZFP SBS#515 (synthetic)
Method in brief: as §1

ZFP SBS#538 = ZFP SBS#538 (synthetic)
Method in brief: as §1

ZFP SBS#532, sequence (P08047 other isoform, or with tags, fused parts or gaps): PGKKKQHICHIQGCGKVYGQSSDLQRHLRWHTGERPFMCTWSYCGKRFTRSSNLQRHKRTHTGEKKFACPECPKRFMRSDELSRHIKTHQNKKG
ZFP SBS#517, sequence (P08047 other isoform, or with tags, fused parts or gaps): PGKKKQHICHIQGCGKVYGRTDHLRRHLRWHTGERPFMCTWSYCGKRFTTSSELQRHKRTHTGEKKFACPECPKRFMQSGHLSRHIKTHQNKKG
ZFP SBS#518, sequence (P08047 other isoform, or with tags, fused parts or gaps): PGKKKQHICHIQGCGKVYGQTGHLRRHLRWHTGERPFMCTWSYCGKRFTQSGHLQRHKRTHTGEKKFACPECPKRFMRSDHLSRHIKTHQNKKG
ZFP SBS#519, sequence (P08047 other isoform, or with tags, fused parts or gaps): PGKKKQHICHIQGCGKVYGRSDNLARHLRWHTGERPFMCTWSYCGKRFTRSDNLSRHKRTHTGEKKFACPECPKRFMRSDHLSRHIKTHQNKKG
ZFP SBS#583 (synthetic), sequence (chain, as listed by the source): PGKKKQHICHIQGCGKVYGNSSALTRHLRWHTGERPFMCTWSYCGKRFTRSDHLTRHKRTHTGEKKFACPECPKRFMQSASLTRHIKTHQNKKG
ZFP SBS#576 (synthetic), sequence (chain, as listed by the source): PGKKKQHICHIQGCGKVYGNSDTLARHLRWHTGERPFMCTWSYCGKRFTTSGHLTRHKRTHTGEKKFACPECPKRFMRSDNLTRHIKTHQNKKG
ZFP SBS#533 (synthetic), sequence (chain, as listed by the source): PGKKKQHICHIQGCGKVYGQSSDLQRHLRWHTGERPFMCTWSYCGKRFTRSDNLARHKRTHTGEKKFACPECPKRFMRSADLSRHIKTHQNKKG
ZFP SBS#587 (synthetic), sequence (chain, as listed by the source): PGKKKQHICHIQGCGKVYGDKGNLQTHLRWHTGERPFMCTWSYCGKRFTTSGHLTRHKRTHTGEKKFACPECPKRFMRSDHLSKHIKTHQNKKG

B1: GGAGCGGGGA (dsDNA)
DNA 1: GGAGCGGGGA
DNA 2: TCCCCGCTCC
Kd (ZFP SBS#577): 200 nM

B2: GGGGGAGGAG (dsDNA)
DNA 1: GGGGGAGGAG
DNA 2: CTCCTCCCCC
Kd (ZFP SBS#518): 30 nM

B3: GGAGCTGGGG (dsDNA)
DNA 1: GGAGCTGGGG
DNA 2: CCCCAGCTCC
Kd (ZFP SBS#517): 50 nM

B4: TGGGCAGGCC (dsDNA)
DNA 1: TGGGCAGGCC
DNA 2: GGCCTGCCCA
Kd (ZFP SBS#540): 55 nM

B5: GGAGGAGCT (dsDNA)
DNA 1: GGAGGAGCT
DNA 2: AGCTCCTCC
Kd (ZFP SBS#516): 700 nM

B6: TGGTTGGTAT (dsDNA)
DNA 1: TGGTTGGTAT
DNA 2: ATACCAACCA
Kd (ZFP SBS#595): 73.3 nM

B7: TACGTGGGTT (dsDNA)
DNA 1: TACGTGGGTT
DNA 2: AACCCACGTA
Kd (ZFP SBS#581): 382 nM

B8: GGGGAAGGCT (dsDNA)
DNA 1: GGGGAAGGCT
DNA 2: AGCCTTCCCC
Kd (ZFP SBS#570): 20 nM

B9: GGGGTTGAGG (dsDNA)
DNA 1: GGGGTTGAGG
DNA 2: CCTCAACCCC
Kd (ZFP SBS#579): 200 nM

B10: GGGGGTTACG (dsDNA)
DNA 1: GGGGGTTACG
DNA 2: CGTAACCCCC
Kd (ZFP SBS#587): 500 nM

B11: GCGGAGGCTT (dsDNA)
DNA 1: GCGGAGGCTT
DNA 2: AAGCCTCCGC
Kd (ZFP SBS#531): 160 nM
Kd (ZFP SBS#532): 100 nM
Kd (ZFP SBS#534): 10 nM
Kd (ZFP SBS#533): 7 nM

B12: GGGGGGGGGG (dsDNA)
DNA 1: GGGGGGGGGG
DNA 2: CCCCCCCCCC
Kd (ZFP SBS#588): 30 nM

B13: GGGGAGGAGA (dsDNA)
DNA 1: GGGGAGGAGA
DNA 2: TCTCCTCCCC
Kd (ZFP SBS#519): 0.3 nM

B14: GGAGGAGAT (dsDNA)
DNA 1: GGAGGAGAT
DNA 2: ATCTCCTCC
Kd (ZFP SBS#520): 300 nM

B15: GAGGGTGTTG (dsDNA)
DNA 1: GAGGGTGTTG
DNA 2: CAACACCCTC
Kd (ZFP SBS#576): 200 nM

B16: GCGGCCGCG (dsDNA)
DNA 1: GCGGCCGCG
DNA 2: CGCGGCCGC
Kd (ZFP SBS#277): 107 nM
Kd (ZFP SBS#278): 190 nM
Kd (ZFP SBS#279): 260 nM
Kd (ZFP SBS#252): 100 nM
Kd (ZFP SBS#281): 225 nM
Kd (ZFP SBS#280): 160 nM
Kd (ZFP SBS#276): 90 nM

B17: TACGTGGGCT (dsDNA)
DNA 1: TACGTGGGCT
DNA 2: AGCCCACGTA
Kd (ZFP SBS#575): 472 nM

B18: GTAGGGGTTG (dsDNA)
DNA 1: GTAGGGGTTG
DNA 2: CAACCCCTAC
Kd (ZFP SBS#583): 46 nM

B19: GATGAGGCA (dsDNA)
DNA 1: GATGAGGCA
DNA 2: TGCCTCATC
Kd (ZFP SBS#522): 200 nM

B20: GGGGAGGATC (dsDNA)
DNA 1: GGGGAGGATC
DNA 2: GATCCTCCCC
Kd (ZFP SBS#606): 0.2 nM
Kd (ZFP SBS#528): 10 nM
Kd (ZFP SBS#527): 2 nM

B21: TACGTGGGGT (dsDNA)
DNA 1: TACGTGGGGT
DNA 2: ACCCCACGTA
Kd (ZFP SBS#574): 25 nM

B22: TGGGAGGAGT (dsDNA)
DNA 1: TGGGAGGAGT
DNA 2: ACTCCTCCCA
Kd (ZFP SBS#515): 0.5 nM

B23: GCAGAGGCTT (dsDNA)
DNA 1: GCAGAGGCTT
DNA 2: AAGCCTCTGC
Kd (ZFP SBS#538): 70 nM
